These are literature values, as cited in PMC2288786 (BMC Structural Biology, 2008).

This series has as its target CaM. The following applies: previously observed for full-length MBP; ref [18],[21]. From the text: Background The myelin sheath is a multilamellar membrane structure wrapped around the axon, enabling the saltatory conduction of nerve impulses in vertebrates. […] In this study, we focus on a 19-mer synthetic peptide from the predicted calmodulin-binding segment near the C-terminus of human myelin basic protein. […] The binding of the ...

B1: full-length myelin basic protein: full-length myelin basic protein of earlier studies (protein, UniProt P02686 1-304, looked up)
chain: MGNHAGKRELNAEKASTNSETNRGESEKKRNLGELSRTTSEDNEVFGEADANQNNGTSSQDTAVTDSKRTADPKNAWQDAHPADPGSRPHLIRLFSRDAPGREDNTFKDRPSESDELQTIQEDSAATSESLDVMASQKRPSQRHGSKYLATASTMDHARHGFLPRHRDTGILDSIGRFFGGDRGAPKRGSGKDSHHPARTAHYGSLPQKSHGRTQDENPVVHFFKNIVTPRTPPPSQGKGRGLSLSRFSWGAEGQRPGFGYGGRASDYKSAHKGFKGVDAQGTLSKIFKLGGRDSRSGSPMARR
modifications: full-length
notes: full-length myelin basic protein of earlier studies
Take B1: the Kd in words entry is reported as “low μM range”.
